Measurements: the supplement of paper PMC12042874
± gives the uncertainty stated by the source.

test: amyloid nucleation score (Sup35N fusion, yeast selection) (log enrichment); library NNK3; higher = more nucleation; inactive = no reads after selection
Procedure, shortened: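 Using DiMSum, nucleation scores were taken as the log enrichment of output over input reads, centred on the mode score of non-aggregating sequences. The input and output reads came from Illumina sequencing of plasmid inserts, with sequences under 100 input reads excluded. The yeast were psi-negative, expressed Sup35N fused to peptides of 20 random codons, were induced with 100 μM copper sulfate for 24 hours, and were grown 7 days at 30°C on medium lacking adenine and uracil.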

| Substance | amyloid nucleation score |
| --- | --- |
| FTDFCVCGCNVFDVMFLLQS | 2.67 ± 0.056 |
| FTGKRSALGCIGVCILF | -0.598 ± 1.2 |
| FTHAIPVYDEVPNHDICDGS | inactive |
| FTLASRLLWGRMCNV | inactive |
| FTLFMDRVIFASSVDSTEIL | inactive |
| FTPLNDDNKCVVSYEY | inactive |
| FTQCNEAGCWHESDTNFMQC | 0.109 ± 0.75 |
| FTRNCSKWIVG | inactive |
| FTRYRNVFKWTMWFSYFWQA | inactive |
| FTSDGEYNRVLPGRSQGASF | -0.92 ± 2.5 |
| FTTCMNYIRRLNRKAPNKCR | inactive |
| FVCCYVYAQQLRRRYIFNLS | inactive |
| FVCSARYNSFRFKATVHNSR | inactive |
| FVFSRNG | inactive |
| FVGNGWSNFSL | inactive |
| FVHKNPHHRFAQMCTKANCR | inactive |
| FVKKRLVKGKNFFIELFLMC | inactive |
| FVKLKYINFGCLRGCESGCL | 1.42 ± 0.13 |
| FVPFERNKMIMKRICEVCVA | 0.97 ± 0.11 |
| FVRIYNFILLAV | inactive |
| FVSDRSSGYTGMLIKDAL | inactive |
| FVSPYRNHVGVGSDADWGFR | inactive |
| FVSWWNRSYVCVWIKLMNWR | inactive |

| Substance | amyloid nucleation score |
| --- | --- |
| FVYFNT | inactive |
| FVYTDVCSQFFRMGHFDTSY | -0.21 ± 0.7 |
| FVYWLILYLRRVAERR | inactive |
| FWEYVRKLIEYEYLGSR | inactive |
| FWHENSIAELWICKTLLGKF | inactive |
| FWKNHRAIHSMFQRHLRHTF | inactive |
| FWLGDM | inactive |
| FWLTNISFDLKFKINSSEFT | 0.205 ± 0.33 |
| FWNRWVVQVDSLSMRMSRVA | inactive |
| FWNVCLDCISR | inactive |
| FWRYAYNCYCGYSCDQIGDS | inactive |
| FWSLNIQGSNYFLHIVNIGR | inactive |
| FWVRYGPNSQGVGPWTMHRW | 0.189 ± 0.74 |
| FYCFIPGMSVMAPFVTSYYY | 1.91 ± 0.053 |
| FYEHLVRSNFLSLRRMVRTV | inactive |
| FYFNRHRHHNVCRYLIGHPC | inactive |
| FYKGKG | inactive |
| FYLGRLSVNGRVVQRHNESM | inactive |
| FYLTR | inactive |
| FYMASMCCWF | inactive |
| FYMISPTISFLLFGLLANI | inactive |
| FYPKLPTLSVQDVGHRKPST | inactive |
| FYSIFN | inactive |

| Substance | amyloid nucleation score |
| --- | --- |
| FYSSSL | inactive |
| FYSWCR | inactive |
| FYSYRTCDGRIAGIIAGNRA | inactive |
| FYVASFWYYPKSEHNGA | inactive |
| FYYRESRQLRLWVYIGSIVY | inactive |
| GACYTFAA | inactive |
| GADDVTNRRTVVVSTQALCL | inactive |
| GADKFSMLRVYGICRLGSAC | -0.024 ± 0.93 |
| GAFSWCSRVVDMVRLTRCDH | inactive |
| GALGSVMVNGRGVTSEGSPY | 0.341 ± 0.39 |
| GCFGPLCDRLSEWMENCWKK | 0.392 ± 0.35 |
| GCFSCVCLP | inactive |
| GCFYCQALNLHPLTSVHAD | inactive |
| GCFYIFRIY | -0.222 ± 1.3 |
| GCGRCFL | inactive |
| GCNGDRFRF | -0.255 ± 0.88 |
| GCWECPTYQMLCTRVCLTWT | inactive |
| GDEVHGFIVVQSREAFSRKL | inactive |
| GDFSSCL | inactive |
| GDGAYS | inactive |
| GDGNRWDRTGSCHLQGAYCR | inactive |
| GDGYRQRVLLWMLVSAGPAS | inactive |
| GDLGDVPGRWDWNKSWFVNY | inactive |

| Substance | amyloid nucleation score |
| --- | --- |
| GDMFDWFSGELVFRMRNILC | -0.917 ± 1.1 |
| GDMKGSISCIIKKEVINVQC | inactive |
| GDSLWIFTAGIDCSYRLIFD | inactive |
| GDSSVTWI | inactive |
| GDTDFYRSCNASYIPSLSRL | inactive |
| GFAMVLSWLKSGFPISRDLR | inactive |
| GFETLYIYAVRGN | inactive |
| GFIVGLLARSTIFTTNYMLK | inactive |
| GFKFKYSYRIDLWEGHWVVR | inactive |
| GFLDDYIIMDQLLHEFVKRF | inactive |
| GFRFNKIRMSPDSNTLCGCA | inactive |
| GFSCVNFFAWIL | 1.81 ± 0.082 |
| GFSLKGLNSNDTRSLSHKLG | inactive |
| GFSYMLVFSNGVYMLIRIRW | inactive |
| GFYNFVFSCASGYRCTGVMG | -0.357 ± 0.59 |
| GGAKVLTV | inactive |
| GGCIGGSYSLERMFYSRVDE | inactive |
| GGKLKRCVYG | inactive |
| GGRLSLKESWKAGFSIAERF | inactive |
| GGRYTVAAEVKVTHAYATG | inactive |
| GGSLYACRGTLRLSNTNVKA | inactive |
| GGTLFLYGLIHQHWFLRMHE | 1.05 ± 0.16 |
| GHFGVLMSGSTGGNLANQSG | inactive |

| Substance | amyloid nucleation score |
| --- | --- |
| GHFLISIKKLL | inactive |
| GHLMGETTY | inactive |
| GHLSIHREGFNLVSHLCANF | inactive |
| GHMWFFVFY | 2.52 ± 0.061 |
| GHRRVVSLCYTYMRWI | inactive |
| GIAIFTMDCGV | inactive |
| GIELAVFYCHYIRVGSDVY | inactive |
| GIFKFMAV | inactive |
| GIGILEVWVSVRYGSWFKRI | inactive |
| GIGVSESRCVTVIWYYGGAV | inactive |
| GILLRFNKGA | inactive |
| GIQIYAMFTFSKSFMLGNWY | inactive |
| GIRVHGNFYMNSGSSTGG | 1.49 ± 0.073 |
| GIWCYAITLGFRPAGSTWDS | 1.02 ± 0.15 |
| GIYPSHHWGI | inactive |
| GKISVMYEMIYNLTNYDGRL | inactive |
| GKSLMK | inactive |
| GKVATHSIHDYFELSMTKGC | inactive |
| GKVNSWIGVRMKLLWSGRFG | inactive |
| GLAQTSLFI | inactive |
| GLCRNCF | inactive |
| GLFCNVFMNKCSS | inactive |
| GLFSLIIR | inactive |

| Substance | amyloid nucleation score |
| --- | --- |
| GLGMGAPQSILWVGDLLMTN | inactive |
| GLKFMRNVSTFRYLRRKTDY | inactive |
| GLLFCSL | -0.248 ± 0.34 |
| GLLPSKKILFLAILTHNRCW | inactive |
| GLLSR | inactive |
| GLLVTTPMLKLNYFNVLDLG | 0.99 ± 0.1 |
| GLMALNVMSVNTTEYCRAYW | 0.56 ± 0.12 |
| GLMLDFILYQWTWYKLSMDT | inactive |
| GLNDHSLI | inactive |
| GLRDMGDKYVYMVSGGCIYG | 2.19 ± 0.069 |
| GLRNYRDGVKIASAVSVGAS | inactive |
| GLVCWTG | inactive |
| GMAETRWGLRKIWKVAGARI | -0.85 ± 1.9 |
| GMALPRVIVFIGNRITTNLG | 2.31 ± 0.065 |
| GMERFNGFKRVFMDSGCLHR | -0.707 ± 0.96 |
| GMHCFIEPLSRVFGSNCGNY | inactive |
| GMPKSWYMPVRMMQASSSAF | inactive |
| GMSICVPSKS | 0.179 ± 0.34 |
| GMSLECNFIYL | 1.84 ± 0.1 |
| GNEWRWWVLRNLLSCFSIP | inactive |
| GNHQSRYSFVP | inactive |
| GNKMVLVW | inactive |
| GNMCDRTYLRMMLFHCRMPS | inactive |

| Substance | amyloid nucleation score |
| --- | --- |
| GNSNTMSVLRCFLNPFPLVW | inactive |
| GNVMSRRDTLWIVIYVRFRH | inactive |
| GNYVTVHIYVKAVFGNG | inactive |
| GPEHQSVPRAFHQLRYLIYN | inactive |
| GPFARNS | inactive |
| GPFQLA | inactive |
| GPHIVRYERTFNG | inactive |
| GPHRILIAVESMTYFEGEVW | inactive |
| GPIYWLLKGQNFESRVDTNL | inactive |
| GPNRYW | inactive |
| GPSLYINLMRVGCRRGHLFL | 1.46 ± 0.12 |
| GPVSYHMRCLYTGLSIPHLF | inactive |
| GRAPYMWC | -0.955 ± 2.4 |
| GRARMFGLGRVFKVCMKLRA | -0.543 ± 0.54 |
| GRDMMWAVCDFEAKLELETG | inactive |
| GRGIYGIIARASAPVRRSLV | inactive |
| GRPHEPGKFIRNSSIGSGS | -0.479 ± 1.1 |
| GRRRIRNCVSRACLMYIQHV | 0.434 ± 0.23 |
| GRSLVYR | inactive |
| GRSSRCWGGMCRGGNLCEEF | inactive |
| GRVFRCTPEVFIK | inactive |
| GRWGGDYFCVGNFMG | inactive |
| GRYVCRL | -0.459 ± 0.9 |
